Data on 1 substance can be found in US20230133775A1.

The assay has as its target Leucine-rich repeat-containing protein 15 (LRRC15) on LRRC15-expressing cells (UniProt Q8TF66). As to the kind of experiment: cell-based or functional assay.

Leucine-rich repeat-containing protein 15 (LRRC15) on LRRC15-expressing cells, sequence (Q8TF66 22-581 limits assumed): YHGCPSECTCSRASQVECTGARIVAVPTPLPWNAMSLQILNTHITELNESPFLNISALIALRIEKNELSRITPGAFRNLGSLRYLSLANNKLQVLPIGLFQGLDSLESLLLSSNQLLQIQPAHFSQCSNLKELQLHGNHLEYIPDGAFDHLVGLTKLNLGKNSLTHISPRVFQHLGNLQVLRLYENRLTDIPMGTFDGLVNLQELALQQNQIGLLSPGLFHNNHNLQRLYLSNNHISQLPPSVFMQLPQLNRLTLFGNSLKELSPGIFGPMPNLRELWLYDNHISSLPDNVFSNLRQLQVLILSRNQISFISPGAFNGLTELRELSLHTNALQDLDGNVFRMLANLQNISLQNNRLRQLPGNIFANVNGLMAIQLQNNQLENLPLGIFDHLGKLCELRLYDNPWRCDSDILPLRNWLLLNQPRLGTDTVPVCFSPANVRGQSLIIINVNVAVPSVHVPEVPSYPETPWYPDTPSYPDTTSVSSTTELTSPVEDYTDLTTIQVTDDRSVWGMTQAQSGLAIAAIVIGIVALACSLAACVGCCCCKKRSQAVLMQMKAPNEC

In the case of “non-specific low fucose isotype control (IgG1-LF) (antibody)”, the target cell death in the ADCC assay with NK92-CD16 effector cells is < 30%.
